Drawing on patent publication US11814447B2, “Peptide ligands for binding to EphA2” (BICYCLERD LIMITED, priority 2018, dated 2023), this text covers Ki for 44 molecules.

Starred links: 1 amine or outer side, 2 acyl side, 3 side chain; linkers in the order of their positions; H or OH if unused. Positions of bridges follow the written chain, without caps; N, C: chain ends. Non-standard residues stand in square brackets, D forms with d. No end group written: not given here. ThiAz = 3-(1,2,4-triazol-1-yl)-alanine, O=C([C@H](Cn1cncn1)N[*:1])[*:2]; TATA = O=C(CC[*:1])N1CN(C(=O)CC[*:2])CN(C(=O)CC[*:3])C1; Ala(2-furyl) = N[C@@H](Cc1ccco1)C(=O)O; 1Nal = N[C@@H](Cc1cccc2ccccc12)C(=O)O; TBMB = c1c(C[*:1])cc(C[*:3])cc1C[*:2]; hArg = N=C(N)NCCCC[C@H](N)C(=O)O; 2Thi = N[C@@H](Cc1cccs1)C(=O)O; Tle = CC(C)(C)[C@H](N)C(=O)O; Pip = O=C(O)[C@@H]1CCCCN1; Aze = O=C(O)[C@@H]1CCN1; Aib = CC(C)(N)C(=O)O; azaGly = NNC(=O)O; βAla = NCCC(=O)O; Sar = CNCC(=O)O

One test addresses T1, Human EphA2 (Ecto) (Human, UniProt P29317 24-537).
T1 construct: extracellular domain
The experiment in a line: FP competition, tracer Compound 18. As for the experimental part:
(§1) Peptides without a fluorescent tag were tested in competition with a peptide with a fluorescent tag and a known Kd (Table 2). Peptides were diluted to an appropriate concentration in assay buffer as described in the direct binding assay with a maximum of 5% DMSO, then serially diluted 1 in 2. […] Measurements were conducted as for the direct binding assay, however the gain was determined prior to the first measurement. Data analysis was in Systat Sigmaplot version 12.0 where the mP values were fit to a user defined cubic equation to generate a Ki value: […]
T1 sequence (P29317 24-537): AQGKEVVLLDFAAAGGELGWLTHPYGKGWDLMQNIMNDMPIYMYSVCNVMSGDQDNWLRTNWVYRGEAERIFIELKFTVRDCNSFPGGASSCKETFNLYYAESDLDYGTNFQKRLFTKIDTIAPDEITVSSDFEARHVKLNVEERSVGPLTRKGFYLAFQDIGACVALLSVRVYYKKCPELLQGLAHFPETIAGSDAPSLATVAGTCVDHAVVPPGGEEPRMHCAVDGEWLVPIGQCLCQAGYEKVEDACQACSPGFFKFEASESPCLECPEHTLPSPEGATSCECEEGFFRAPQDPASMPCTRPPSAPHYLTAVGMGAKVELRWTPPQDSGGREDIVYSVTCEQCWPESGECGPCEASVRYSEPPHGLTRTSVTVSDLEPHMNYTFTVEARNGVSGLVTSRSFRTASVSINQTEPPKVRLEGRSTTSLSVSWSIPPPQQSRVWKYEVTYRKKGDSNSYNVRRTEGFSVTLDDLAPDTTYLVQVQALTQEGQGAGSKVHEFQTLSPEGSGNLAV
With AHDVPCP[1Nal]G[Aib]FWCP[Tle]NR[Aib]GC (linker 6-13-20 via TBMB) [Bicycle Compound 192], the Ki (commonly a dissociation constant, usually derived from enzyme kinetics or from competition with a known ligand) is 1.75 nM.

Ac-[Sar][Sar]AHDVPCPWGPFWCPVNRPGC (linker 8-15-22 via TBMB) [Bicycle Compound 193]: the inhibition constant (Ki) was determined as 0.59 nM.

[Sar][Sar]AHAVPCPWGPFWCPVNRPGC (linker 8-15-22 via TBMB) [Bicycle Compound 205] showed a Ki of 1.8 nM.

Turning to [Sar][Sar]AHDVACPWGPFWCPVNRPGC (linker 8-15-22 via TBMB) [Bicycle Compound 218], the affinity corresponds to a Ki of 1.27 nM.

In turn, [Sar][Sar]A[dA]DVPCPWGPFWCPVNRPGC (linker 8-15-22 via TBMB) [Bicycle Compound 199] gave a Ki of 3.35 nM.

For the molecule Ac-[Sar][Sar]A[dD]DVPCPWGPFWCPVNRPGC (linker 8-15-22 via TBMB) [Bicycle Compound 200], affinity was put at a Ki of 4.1 nM.

Turning to Ac-[Sar][Sar]A[dD]DVTCPWGPFWCPVNRPGC (linker 8-15-22 via TBMB) [Bicycle Compound 281], the Ki worked out at 5.78 nM.

As for Ac-[Sar][Sar]A[dH]DVPCPWGPAWCPVNRPGC (linker 8-15-22 via TBMB; also: A13 (ΨAla): reduced amide backbone bond) [Bicycle Compound 228], the affinity, expressed as Ki, was 210 nM.

[Sar][Sar]AH[dE]VPCPWGPFWCPVNRPGC (linker 8-15-22 via TBMB) [Bicycle Compound 208] yielded a Ki of 2 nM.

In turn, [Sar][Sar]AHDAPCPWGPFWCPVNRPGC (linker 8-15-22 via TBMB) [Bicycle Compound 214] showed an inhibition constant Ki of 22.5 nM.

[Sar][Sar]AHEVPCPWGPFWCPVNRPGC (linker 8-15-22 via TBMB) [Bicycle Compound 207] gave a Ki of 1.3 nM.

As for [Sar][Sar]AHD[dA]PCPWGPFWCPVNRPGC (linker 8-15-22 via TBMB) [Bicycle Compound 215], affinity was put at a Ki of 26 nM.

[Sar][Sar]AHDV[dA]CPWGPFWCPVNRPGC (linker 8-15-22 via TBMB) [Bicycle Compound 219]: the Ki is 15 nM.

For the molecule Ac-[Sar][Sar]AADVPCPWGPFWCPVNRPGC (linker 8-15-22 via TBMB) [Bicycle Compound 195], the inhibition constant (Ki) worked out at 1.01 nM.

[Sar][Sar]AH[dA]VPCPWGPFWCPVNRPGC (linker 8-15-22 via TBMB) [Bicycle Compound 206] had a Ki of 8.3 nM.

Molecule [βAla][Sar][Sar][Sar][Sar][Sar][Sar][Sar][Sar][Sar][Sar]H[dD]VPCPWGPFWCPVNRPGC (linker 16-23-30 via TBMB) [Bicycle Compound 226] showed a Ki of 0.84 nM.

Consider Ac-[Sar][Sar]A[dH]DVPCPWGPFWCPVNRPGC (linker 8-15-22 via TBMB) [Bicycle Compound 196], for which the Ki stood at 0.95 nM.

As for [Sar][Sar]A[ThiAz]DVPCPWGPFWCPVNRPGC (linker 8-15-22 via TBMB) [Bicycle Compound 202], the Ki worked out at 0.7 nM.

The molecule [Sar][Sar]AHDV[Aib]CPWGPFWCPVNRPGC (linker 8-15-22 via TBMB) [Bicycle Compound 220] gave an inhibition constant (Ki) of 0.83 nM.

In the case of Ac-[Sar][Sar]A[dH]D[Tle]PCPWGPFWCPVNRPGC (linker 8-15-22 via TBMB) [Bicycle Compound 204], the inhibition constant (Ki) is 2.15 nM.

In turn, Ac-[Sar][Sar]AH[dD]V[Aib]CPWGPFWCPVNRPGC (linker 8-15-22 via TBMB) [Bicycle Compound 213] had a Ki of 1.9 nM.

The molecule [Sar][Sar]A[2Thi]DVPCPWGPFWCPVNRPGC (linker 8-15-22 via TBMB) [Bicycle Compound 201] gave a Ki of 0.6 nM.

Ac-[Sar][Sar]A[dD]DVTCP[1Nal]G[Aib]FWCP[Tle]N[hArg]PGC (linker 8-15-22 via TBMB) [Bicycle Compound 284] gave an inhibition constant Ki of 3.8 nM.

With [Sar][Sar]A[Ala(2-furyl)]DVPCPWGPFWCPVNRPGC (linker 8-15-22 via TBMB) [Bicycle Compound 203], the affinity, expressed as Ki, was 0.49 nM.

On to [Sar][Sar]AHD[Aib]PCPWGPFWCPVNRPGC (linker 8-15-22 via TBMB) [Bicycle Compound 216], for which the Ki is 2.77 nM.

Turning to [βAla][Sar][Sar][Sar][Sar][Sar][Sar][Sar][Sar][Sar][Sar]HDVPCPWGPFWCPVNRPGC (linker 16-23-30 via TBMB) [Bicycle Compound 223], the inhibition constant (Ki) turned out to be 1.29 nM.

Consider Ac-[Sar][Sar]AH[dD]VPCPWGPFWCPVNRPGC (linker 8-15-22 via TBMB) [Bicycle Compound 210], for which the affinity corresponds to a Ki of 1.1 nM.

With Ac-[Sar][Sar]A[dH]DVPCPWG[Aib]FWCP[Tle]NR[Aib]GC (linker 8-15-22 via TBMB) [Bicycle Compound 233], the inhibition constant Ki was 4.8 nM.

In turn, [Sar][Sar]AHDV[Pip]CPWGPFWCPVNRPGC (linker 8-15-22 via TBMB) [Bicycle Compound 222] came in with a Ki of 3.4 nM.

For Ac-[Sar][Sar]AH[dD][Tle]PCPWGPFWCPVNRPGC (linker 8-15-22 via TBMB) [Bicycle Compound 211], the Ki was 3.1 nM.

Take Ac-[Sar][Sar]A[dD]DVTCP[1Nal]GPFWCPVNRPGC (linker 8-15-22 via TBMB) [Bicycle Compound 282]: the affinity, expressed as Ki, was 0.87 nM.

In the case of Ac-[Sar][Sar]A[dH]DVPCP[1Nal]GPFWCP[Tle]N[hArg]PGC (linker 8-15-22 via TBMB) [Bicycle Compound 230], the Ki was determined as 1.8 nM.

Ac-[Sar][Sar]AH[dD]VPCP[1Nal]GPFWCP[Tle]N[hArg]PGC (linker 8-15-22 via TBMB) [Bicycle Compound 227] gave a Ki of 0.75 nM.

Regarding [Sar][Sar]AH[dD]VPCPWGPFWCPVNRPGC (linker 8-15-22 via TBMB) [Bicycle Compound 209], the Ki was 1.25 nM.

For [Sar][Sar]AHDV[Aze]CPWGPFWCPVNRPGC (linker 8-15-22 via TBMB) [Bicycle Compound 221], the Ki came to 3.1 nM.

[Sar][Sar]AHD[Tle]PCPWGPFWCPVNRPGC (linker 8-15-22 via TBMB) [Bicycle Compound 217] yielded an inhibition constant Ki of 0.49 nM.

For AHDVPCP[1Nal]GPFWCP[Tle]NRPGC (linker 6-13-20 via TBMB) [Bicycle Compound 190], the affinity, expressed as Ki, was 0.7 nM.

The molecule Ac-[Sar][Sar][dA]HDVPCPWGPFWCPVNRPGC (linker 8-15-22 via TBMB) [Bicycle Compound 194] displayed a Ki of 1.2 nM.

In turn, AHDVPCP[1Nal]G[Aib]FWCP[Tle]N[hArg]PGC (linker 6-13-20 via TBMB) [Bicycle Compound 191] yielded a Ki of 3.1 nM.

Consider Ac-[Sar][Sar]AH[dD]V[Sar]CPWGPFWCPVNRPGC (linker 8-15-22 via TBMB) [Bicycle Compound 212], for which the affinity corresponds to a Ki of 4.95 nM.

As to [Sar][Sar]A[dH]DVPCPWGPFWCPVNRPGC (linker 8-15-22 via TBMB) [Bicycle Compound 197], affinity was put at a Ki of 1.2 nM.

Molecule Ac-[Sar][Sar]H[dD]VPCPW[azaGly]PFWCPVNRPGC (linker 7-14-21 via TBMB) [Bicycle Compound 267] yielded an inhibitory constant (Ki) of 0.66 nM.

Take Ac-[Sar][Sar]A[dD]DVTCP[1Nal]GPF[1Nal]CPVNRPGC (linker 8-15-22 via TBMB) [Bicycle Compound 283]: the Ki amounted to 0.28 nM.

Another test concerns the target T2, Human EphA2 (Ecto) (Human, UniProt P29317 24-537).
T2 construct: extracellular domain; in-house)
The experiment in a line: FP competition; tracer Reference Compound C. As for the experimental part: as §1
T2 sequence (P29317 24-537): as the sequence (P29317 24-537) above
ACMNDWWCAMGWKCA (linker 2-8-14 via TATA) [Bicycle Compound Number 15 (TATA scaffold), ACMNDWWCAMGWKCA]: the affinity, expressed as Ki, was 278 nM.
